Experimental data as given in the supplement of paper PMC10567573.

B1: SMTNL2 (parent)
chain: QKNFELAFTMAENLANCERLIEVE
B2: ZNF263 (parent)
chain: FGGNPRFLSLHRAHLGEEAHKCLE

Variants of: B1
Test: protein stability index of a GFP-peptide fusion (GPS, HEK-293T) (PSI 1-6); higher = more stable
Conditions: c terminus: a fixed tail appended
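Note: lentivirally expressed fusions sorted by FACS into six bins by GFP to DsRed ratio, PSI derived from sequencing read proportions per bin multiplied by bin number.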

Protein stability index: each site, then its substitutions
Q1: P 2.56, F 3.06, N 1.67, V 1.54, K 2.58, G 1.2, L 1.86, D 1.28, T 1.26, Y 1.97
K2: D 2.51, E 1.84, G 1.74, C 1.77

Variants of: B2
Test: as above
Conditions: c terminus: a fixed tail appended

Protein stability index, by site and new letter:
L10: Y 2.33, I 2.06, P 2.01, T 1.99, E 2.64, S 1.62, K 2.24, H 2.17, W 3.91, Q 2, V 2.66, F 1.8, R 2.69, N 2.22
E18: F 1.85, V 2.43, A 1.77, P 2.05, G 1.61, K 1.39, T 1.46, Q 1.87, D 1.87, M 1.75, R 1.62, I 2.34, H 1.47, C 2.12, L 2.33, W 2.03, S 2.34, Y 1.88
H14: P 1.59, L 1.46, Q 2.6, S 1.35, I 3.64, F 2.55, D 2.56, R 1.24, G 1.95, V 1.96, N 1.49, E 1.15, M 1.69, W 2.42, A 1.74, K 1.81
G3: W 2.14, N 2.24, K 2.36, A 1.91, V 2.83, R 2.48, F 2.69, Q 1.53, P 2.13, S 2.25, L 2.5, I 3.04, E 2.16, H 2.51, D 3.36
C22: G 1.62, Y 1.88, R 1.75, F 1.74, D 2.15, I 1.59, P 2.44, H 2.44, N 2.17, E 2.19, V 2.51, S 3.62
N4: R 2.46, F 2.15, S 1.14, A 2.87, Q 1.51, E 2.26, P 2.61, W 2.37, G 1.56, V 2.44, K 2.31, H 1.97, I 2.24, T 1.66, L 2.32, C 1.62
P5: G 1.64, A 2.03, C 1.49, D 1.35, Q 2.2, F 1.62, L 1.69, S 1.93, T 2.17, I 1.52, K 1.56, W 1.96, V 1.96, E 2.19, R 2.01, H 2.17, M 1.96
R6: P 2.73, C 3.09, I 2.58, V 3.33, N 1.89, F 2.25, E 1.3, M 2.5, L 2.62, G 1.74, S 1.79, K 2.77, T 2.89
A13: E 1.66, C 1.71, H 2.26, D 1.81, N 2.04, P 1.56, Q 1.48, F 2.52, L 1.43, W 1.81, K 1.94, I 1.35, S 1.71, G 1.99
S9: T 1.8, A 1.52, Y 3.04, N 1.55, V 1.71, K 1.64, P 2.1, D 1.34, L 2.25, Q 2.9, F 2.14, C 2.16, R 1.87, M 1.15
L15: P 1.94, I 1.54, T 1.55, A 1.83, S 1.73, R 2.05, C 3.76, E 1.7, D 2.46, K 2.06, M 1.62, H 2.33, Y 2.58, Q 1.86, F 1.27
G16: E 2.51, I 2.06, V 2.42, C 1.83, A 2.1, R 1.64, N 1.92, S 2.06, W 1.87, H 1.7, Q 2.76, M 2.19, L 2.55
F1: V 3.87, S 3.69, A 3.45, D 4.17, K 2.95, R 3.69, Y 1.47, Q 3.38, E 3.61, H 3.19, N 3.94, L 3.18, I 3.51
A19: R 1.59, D 1.99, K 1.49, G 1.58, N 1.66, V 1.91, H 1.75, Y 1.57, W 2.23, I 2.36, E 2.14, Q 1.9, S 2.48, T 1.95
L23: F 1.8, W 1.75, N 2.21, T 2.51, Q 1.92, C 1.97, P 2.02, I 2.02, E 1.97, S 1.63, R 1.7, Y 1.75, G 1.76, D 1.63, H 1.97, V 1.83
L8: Y 3.2, F 2.16, T 2.77, I 1.41, R 2.27, N 2.25, P 2.01, Q 1.66, K 2.53
E24: T 1.56, K 1.76, V 2.88, R 1.75, H 1.69, G 1.72, C 2.15, Q 2.37, I 1.51, P 1.63, S 2.75, N 1.48, Y 1.51
F7: V 2.64, G 2.63, C 2.31, S 3.57, N 3.42, Q 3.49, K 3.58, E 4, H 2.56, D 3.51, P 2.71
R12: Y 1.24, D 1.85, G 1.81, A 2.08, N 2.49, K 1.61, P 1.46, F 2.35, S 2.17, C 1.87, I 1.84, V 3.14
H11: A 1.41, Q 1.6, R 1.91, E 2.01, I 1.87, V 2.55, G 2.71, Y 3.3, N 1.8, D 2.22
G2: M 2.35, A 1.59, C 1.61, W 2.24, Q 1.38, T 3.64, I 1.64, R 3.66, P 2.13, H 1.79, E 3.12
K21: F 2.17, S 1.85, V 1.38, G 1.9, I 2.14, H 1.89, P 2.13, R 1.05, T 2.04, E 1.76, A 1.77
H20: K 2.56, M 2.13, C 2.94, V 1.43, F 1.98, W 2.24, D 2.28, Y 2.18, E 2.13, P 1.83, L 1.61, I 1.4, R 1.66, T 1.55
E17: I 1.19, Q 1.85, T 1.73, G 1.3, C 2.37, W 2.12, L 1.25, F 2.94, S 2.07
